According to the supplement of paper PMC11136658:

System: peptide library, one residue held at a place counted from the Y acceptor
Assay: relative phosphorylation of the sub-library (ratio to the mean residue at this position); higher = residue favoured
Procedure, shortened: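 Every value reflects phosphorylation relative to the mean randomized residue. The sum of the 18 randomized residues, or 16 in the Ser/Thr-free library, served to normalize intensities at each position, which were then multiplied by that number. Intensities came from phosphorimaging with ImageQuant of biotinylated Tyr-centred peptides captured on streptavidin membranes after 90 min with purified recombinant kinases and 50 μM ATP plus γ-32P-ATP.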

Sequence of TYK2, construct: aa871-end, human (P29597 871-1187, looked up): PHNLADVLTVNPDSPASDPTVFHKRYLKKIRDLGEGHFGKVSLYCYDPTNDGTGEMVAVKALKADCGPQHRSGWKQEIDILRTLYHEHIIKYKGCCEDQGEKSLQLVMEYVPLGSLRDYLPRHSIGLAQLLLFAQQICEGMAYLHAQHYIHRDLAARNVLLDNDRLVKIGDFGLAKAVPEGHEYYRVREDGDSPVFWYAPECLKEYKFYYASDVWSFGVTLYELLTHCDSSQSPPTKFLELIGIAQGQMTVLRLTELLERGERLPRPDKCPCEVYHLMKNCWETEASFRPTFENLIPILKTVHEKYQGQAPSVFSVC
Sequence of FES, construct: Full length, human (P07332 whole entry, looked up): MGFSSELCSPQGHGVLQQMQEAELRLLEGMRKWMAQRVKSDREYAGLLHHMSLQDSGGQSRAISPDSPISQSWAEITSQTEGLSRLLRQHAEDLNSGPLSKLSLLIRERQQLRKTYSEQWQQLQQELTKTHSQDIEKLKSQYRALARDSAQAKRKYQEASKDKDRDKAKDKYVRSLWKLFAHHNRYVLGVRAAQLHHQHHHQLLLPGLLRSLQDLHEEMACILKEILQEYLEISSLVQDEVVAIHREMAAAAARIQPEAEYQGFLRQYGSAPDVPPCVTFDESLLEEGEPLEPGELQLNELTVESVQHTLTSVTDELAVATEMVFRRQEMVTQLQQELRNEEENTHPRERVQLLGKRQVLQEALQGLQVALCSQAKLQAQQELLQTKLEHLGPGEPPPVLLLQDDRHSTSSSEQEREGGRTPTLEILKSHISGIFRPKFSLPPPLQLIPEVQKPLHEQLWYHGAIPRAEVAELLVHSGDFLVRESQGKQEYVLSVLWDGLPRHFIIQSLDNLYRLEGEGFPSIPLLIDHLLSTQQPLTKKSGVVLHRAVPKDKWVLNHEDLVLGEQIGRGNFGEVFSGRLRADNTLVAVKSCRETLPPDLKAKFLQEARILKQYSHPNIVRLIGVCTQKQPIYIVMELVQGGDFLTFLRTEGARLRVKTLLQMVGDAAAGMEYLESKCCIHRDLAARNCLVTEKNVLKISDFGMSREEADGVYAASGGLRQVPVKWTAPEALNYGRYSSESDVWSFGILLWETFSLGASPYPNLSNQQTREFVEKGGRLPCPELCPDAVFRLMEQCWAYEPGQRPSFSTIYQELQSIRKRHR

FES, construct: Full length, human (from UniProt P07332)
relative phosphorylation
Details	at +1	at +2	at +3	at +4	at +5	at -1	at -2	at -3	at -4	at -5
A fixed	1.45	0.535	0.428	0.817	1.18	0.518	1.05	0.86	1.26	1
D fixed	0.789	0.715	0.235	0.622	0.47	0.77	1.01	1.52	1.16	0.941
E fixed	2.65	0.794	0.289	1	0.374	0.567	1.27	1.89	1.27	0.9
F fixed	0.872	1.58	1.32	1.07	1.71	1.3	0.851	1.44	1.13	1.14
G fixed	0.754	0.372	0.35	1.01	0.809	0.274	1.26	0.985	1.4	1.09
H fixed	0.471	0.425	0.752	0.957	1.24	0.718	0.917	0.826	0.74	0.979
I fixed	1.07	1.3	3.25	1.25	1.23	4.02	1.02	0.823	1.1	1.07
K fixed	0.208	0.294	0.21	0.592	0.394	0.273	0.62	0.44	0.615	0.766
L fixed	0.854	1.56	1.45	0.795	1.35	2.41	1.24	0.866	1.1	1.09
M fixed	1.82	1.36	2.19	1.68	1.52	1.05	0.917	1.18	1.19	1.24
N fixed	0.332	0.848	0.273	0.57	0.593	0.618	0.982	1.02	0.762	1.14
P fixed	0.332	0.643	0.361	0.845	1.44	0.599	1.21	0.917	1.01	0.883
Q fixed	0.95	0.552	0.373	0.858	0.669	0.412	1.1	0.702	1.13	1.18
R fixed	0.219	0.379	0.252	0.946	0.536	0.228	0.657	0.536	0.62	0.854
S fixed	1.29	0.819	0.482	0.923	0.78	0.432	0.953	0.924	0.733	0.777
T fixed	1.09	0.867	0.646	0.831	1.03	0.784	0.916	0.806	0.664	0.821
V fixed	1.88	1.26	2.52	1.1	1.27	2.19	1.08	0.942	0.984	1.05
W fixed	0.981	3.69	2.61	2.14	1.4	0.835	0.948	1.32	1.12	1.08
pThr fixed	3.64	1.35	0.346	0.649	0.307	1.53	1.21	1.65	0.946	0.879
pTyr fixed	3.48	1.27	0.712	1.14	0.357	9.09	2.21	2.25	1.83	1.55

LIMK2, construct: Full length, human (from UniProt P53671)
relative phosphorylation
Details	at +1	at +2	at +3	at +4	at +5	at -1	at -2	at -3	at -4	at -5
A fixed	0.976	0.966	1.08	1.3	0.842	1.01	0.854	1.04	1.16	1.03
D fixed	0.585	0.603	0.651	0.577	0.528	0.594	0.554	0.548	0.717	0.683
E fixed	0.556	0.664	0.635	0.693	0.554	0.615	0.56	0.529	0.643	0.723
F fixed	0.891	1.1	0.986	0.945	0.84	0.819	0.936	0.877	0.858	0.92
G fixed	0.979	1.06	1.1	1.48	1.07	1.08	1.08	1.24	1.27	1.05
H fixed	1.33	1.11	1.25	1.39	1.13	1.05	1.18	1.14	0.993	1.13
I fixed	0.695	0.788	0.744	0.691	0.53	0.782	0.82	0.632	0.691	0.818
K fixed	1.65	1.47	1.31	1.43	1.73	1.54	1.51	1.6	1.46	1.46
L fixed	0.739	0.931	0.795	0.891	0.749	0.896	0.86	0.865	0.815	0.849
M fixed	0.822	1.01	1.1	0.899	0.75	0.922	0.857	0.669	0.79	0.744
N fixed	0.958	0.851	0.879	0.724	1.07	1.1	1.07	1.09	0.928	0.852
P fixed	1.23	1.31	1.33	1.4	1.13	1.28	1.26	1.33	1.19	1.15
Q fixed	1.05	0.775	0.831	0.66	1.12	0.944	0.911	1.13	0.988	0.893
R fixed	1.79	1.28	1.3	1.19	2	1.65	1.6	1.59	1.55	1.52
V fixed	0.647	0.84	0.78	0.713	0.689	0.715	0.887	0.765	0.783	0.774
W fixed	1.1	1.23	1.22	1.02	1.28	0.986	1.05	0.96	1.16	1.4
pThr fixed	0.62	0.618	0.541	0.618	0.406	0.623	0.566	0.539	0.717	0.671
pTyr fixed	0.617	0.693	0.604	0.497	0.519	0.868	0.658	0.599	0.627	0.759

TYK2, construct: aa871-end, human (from UniProt P29597)
relative phosphorylation
Details	at +1	at +2	at +3	at +4	at +5	at -1	at -2	at -3	at -4	at -5
A fixed	1.02	0.925	0.773	0.912	0.996	1.11	0.912	0.961	1.1	1.01
D fixed	0.279	0.572	0.536	0.798	0.795	1.27	0.902	0.975	0.881	0.949
E fixed	0.484	0.712	0.473	0.923	0.803	0.995	0.977	0.946	1.27	0.869
F fixed	1.45	1.04	1.17	1.05	1.02	1.24	0.932	1.02	1.18	1.04
G fixed	0.642	0.869	0.853	1.05	1.1	1.1	1.14	1.04	1.24	1.21
H fixed	1.3	0.828	1.07	1.15	1	1.22	1.09	1.04	0.906	0.96
I fixed	1.79	0.873	1.69	0.909	0.957	1.05	1.06	0.9	1.1	0.983
K fixed	0.544	1.29	0.806	1.24	1.1	0.573	0.956	0.959	0.86	0.995
L fixed	1.58	0.927	1.27	0.899	1.02	1.05	1.07	1.01	1.04	1.08
M fixed	1.59	1.02	1.33	1.17	0.983	0.976	0.858	0.983	0.967	0.959
N fixed	0.565	1.22	0.988	0.981	0.979	0.98	1.2	1.2	0.925	1.09
P fixed	0.381	1.04	0.756	0.756	1.22	1.18	0.892	1.17	1.1	1.09
Q fixed	0.973	1.07	0.967	1.15	0.908	0.854	1	0.981	1.02	1.03
R fixed	0.869	1.51	1.19	1.31	1.19	0.64	1.08	0.935	1.01	1.02
S fixed	0.761	1.06	0.951	0.957	1.03	0.98	0.986	0.995	0.743	0.91
T fixed	0.967	1.01	1.02	0.876	1.01	0.922	0.953	0.925	0.73	0.769
V fixed	1.42	0.823	1.16	0.857	0.882	0.949	0.983	0.963	0.786	0.875
W fixed	1.37	1.2	0.996	1.01	1	0.895	1.01	0.999	1.15	1.16
pThr fixed	0.332	0.465	0.257	0.549	0.579	0.969	0.712	0.903	0.863	0.929
pTyr fixed	1.02	0.822	0.517	0.919	0.694	1.51	0.98	1.1	1.22	1.07

ERBB2, construct: aa676-end, human (from UniProt P04626)
relative phosphorylation
Details	at +1	at +2	at +3	at +4	at +5	at -1	at -2	at -3	at -4	at -5
A fixed	0.734	0.684	0.603	0.869	1.51	0.72	0.953	0.764	0.972	0.899
D fixed	0.56	1.04	0.571	0.774	0.521	1.88	1.26	1.48	1.19	1.04
E fixed	0.87	1.19	0.493	0.79	0.575	1.91	1.58	1.88	1.41	0.983
F fixed	1.73	1.58	2.19	1.09	0.958	1.12	0.99	1.27	1.02	1.06
G fixed	0.526	0.504	0.621	0.943	1.06	0.567	1.15	1	1.2	1.12
H fixed	1.18	0.884	0.867	1.02	1.61	0.846	0.936	0.855	0.872	1.04
I fixed	1.5	0.984	1.86	0.764	0.878	1.62	0.932	0.726	0.985	0.909
K fixed	0.462	0.78	0.474	0.991	0.87	0.476	0.674	0.659	0.834	0.992
L fixed	1.53	0.938	1.51	0.8	1.13	1.28	0.973	0.963	0.994	1.06
M fixed	1.17	0.924	1.26	1.23	1.25	0.986	0.837	0.937	0.959	1.01
N fixed	0.59	1.03	0.65	0.843	0.667	1.07	1.08	1.1	1.01	1.14
P fixed	0.395	0.714	0.72	1.18	1	0.617	0.922	0.795	0.924	0.987
Q fixed	0.923	1.02	0.821	0.959	0.679	0.849	1.07	0.876	1.17	1.04
R fixed	0.555	0.837	0.669	1.18	1.28	0.506	0.825	0.824	0.952	1.03
S fixed	0.757	0.928	0.608	0.808	0.849	0.693	0.921	0.989	0.851	0.887
T fixed	0.943	0.874	0.68	0.844	0.944	0.811	0.966	0.948	0.761	0.883
V fixed	2	0.98	1.26	0.807	1.08	1.3	1.03	0.851	0.814	0.915
W fixed	1.59	2.12	2.14	2.11	1.14	0.748	0.91	1.08	1.1	0.991
pThr fixed	1.22	1.36	0.495	0.755	0.514	1.99	1.7	1.7	1.26	1.14
pTyr fixed	6.36	3.29	0.953	0.93	0.82	3.1	1.62	2.2	1.91	1.25
